The values that follow come from patent publication US20130136691A1, “GASTRIN […] PEPTIDE COMPOUNDS” (priority 2008, published 2013).

Assay [1] concerns the target gastrin releasing peptide receptor (GRP-R) (human) (UniProt P30550). The assay is described as follows: competition with 67Ga-AMBA, PC-3 cells.
Assay [2] has the same target. The assay can be described thus: competition with 177Lu-AMBA, PC-3 cells.
Assay [3] shares this target. The assay can be described thus: competition with 125I-universal ligand, receptor autoradiography on human tumour tissue.
Assay [4] has as its target human neuromedin-B preferring receptor (NMB-R) (human) (UniProt P28336). The description is as above.
Assay [5] has as its target gastrin releasing peptide receptor (GRP-R) (human) (UniProt P30550). The assay is described as follows: saturation binding, PC-3 cells, calculated from Bmax.
Assay [6] has the same target. The assay is described as follows: saturation binding of carrier-added radioligand, PC-3 cells, 4 C.

For orientation: pEC50 means −log10 of the EC50, conventionally taken in molar units. The pIC50 is the IC50 on a negative log10 scale, so that one unit is a factor of ten. Read a high pIC50 as a low IC50. For orientation: pKd means the negative decadic logarithm of the Kd, by convention in mol/L. High values mean a low Kd, low ones a high Kd.

pEC50, pIC50, pKd: −log10 of the molar value.

Sequence of gastrin releasing peptide receptor (GRP-R) (human) (P30550 whole entry): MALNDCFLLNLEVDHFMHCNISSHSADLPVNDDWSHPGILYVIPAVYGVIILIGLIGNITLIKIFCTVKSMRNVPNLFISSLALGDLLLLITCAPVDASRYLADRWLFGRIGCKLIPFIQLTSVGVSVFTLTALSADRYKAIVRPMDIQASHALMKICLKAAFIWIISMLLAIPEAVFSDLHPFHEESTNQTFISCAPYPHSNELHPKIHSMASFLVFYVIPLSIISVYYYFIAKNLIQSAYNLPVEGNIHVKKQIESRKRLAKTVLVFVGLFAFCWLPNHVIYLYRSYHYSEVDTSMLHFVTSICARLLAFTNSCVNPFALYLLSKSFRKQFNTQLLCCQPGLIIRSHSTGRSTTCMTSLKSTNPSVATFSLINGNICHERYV
Sequence of human neuromedin-B preferring receptor (NMB-R) (human) (P28336 whole entry): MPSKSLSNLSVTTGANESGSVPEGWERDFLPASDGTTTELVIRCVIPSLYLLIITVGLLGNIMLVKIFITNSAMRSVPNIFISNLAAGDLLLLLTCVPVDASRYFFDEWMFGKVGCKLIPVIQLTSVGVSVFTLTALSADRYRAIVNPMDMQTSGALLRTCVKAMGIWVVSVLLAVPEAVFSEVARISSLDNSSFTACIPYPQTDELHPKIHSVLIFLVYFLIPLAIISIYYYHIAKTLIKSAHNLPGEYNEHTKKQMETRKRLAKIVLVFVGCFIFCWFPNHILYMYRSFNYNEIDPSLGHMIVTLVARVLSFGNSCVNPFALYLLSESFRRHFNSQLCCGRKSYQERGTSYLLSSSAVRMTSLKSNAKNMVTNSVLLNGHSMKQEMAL

On to “Ga-AMBA (non-radioactive gallium complex of AMBA) (peptide)”, for which the pEC50 was 9.00 in assay [1] and 8.94 in assay [2].
Consider “Universal ligand ([DTyr^6, βAla^11, Phe^13, Nle^14]-BBN(6-14)) (peptide)”, for which the negative-log IC50 (pIC50) in assay [3] is 9.15; in assay [4], 9.10.
Turning to ^67Ga-AMBA (peptide), the Receptors/cell (receptors/cell) in assay [5] is 242000. Also, in assay [6], the Binding capacity (Bmax) (fmoles/1 × 10^6 cells) was 402 and the pKd was 9.34.
